Data on one substance can be found in publication doi:10.1101/2022.10.27.514150.

In this assay the target is Gluc1-ΔN(1–433). Kind of assay: split reporter.

Chain of Gluc2-E2F4 FL (Q16254 whole entry): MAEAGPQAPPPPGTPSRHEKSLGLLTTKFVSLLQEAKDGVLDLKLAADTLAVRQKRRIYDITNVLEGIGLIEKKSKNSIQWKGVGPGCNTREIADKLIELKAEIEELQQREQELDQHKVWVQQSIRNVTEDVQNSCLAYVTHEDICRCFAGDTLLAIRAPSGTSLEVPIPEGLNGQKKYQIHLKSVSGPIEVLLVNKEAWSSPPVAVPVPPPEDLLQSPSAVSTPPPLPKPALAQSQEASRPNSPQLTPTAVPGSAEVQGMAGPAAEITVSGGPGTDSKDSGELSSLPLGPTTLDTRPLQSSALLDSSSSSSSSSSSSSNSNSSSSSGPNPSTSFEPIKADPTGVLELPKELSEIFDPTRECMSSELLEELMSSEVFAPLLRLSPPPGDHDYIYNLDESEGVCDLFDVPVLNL

Turning to “Gluc2-E2F4 FL (from UniProt Q16254 1-413) (natural protein)”, the normalized luminescence ratio (NLR) was greater than 20.
